Measurements: a protein production outcome set (Wang et al. 2014)

Assay: label from the status in PepcDB records
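Further: failed if final PepcDB status was selected cloned or expressed and not failed if soluble or beyond.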

Row | Sequence | protein production
1 | MAQATSPIELALTTGRGHQAEVRLAKPDGSYLPVIASCNPLNRSDGGIVLTLNDISELRSAERAVSDRAEELATLNRELKETSQATTRLVKLGELLQACVTFHEAFSVVGSAMPDFFGGLSGTVHLTSASRNLVEEMAHWGAVRSSVGQFAPEDCWALRRGQEHVAGPGMLTPRCNHITENGGRGYVCMPLAAQGETLGIVHLCEPDAADRPDWLTERQQILRGVVDTLALALANLRLRETLRQQSIRDPNTGLYNRRYLEETSSRELRRMERSGQPLAMIMLDVDHFKQFNDTFGHEAGDLVLKQVAATLLDHARESDVVSRYGGEEFALMMPGTSLADAAERAEALRKAIKQLHLTHRGRTLGTITASFGVSAFPELGASWVEIVNAADRSLYQAKADGRDRVVAGLGRADPQWDLSTASQSVA | failed
2 | MLQIADYIAENYRGKVVEVGIGRFTAVAELLARRGFEVFATDVVERRAPEGCRFYVDDVTKPNLKIYEGASLIYSLRPPPELFSAIVEVSRKVGADCLIKPLYGDYMEARIVNYKGAQFYLIRRENYD | failed
3 | MLSTGLDELVYRSNLIGSDRAVCNWGGGNTSMKTVEKDFRGREIAVMWVKGSGSDLATMGAKNFTGLNLEDIRPLIEREEMSDEEMVEYLGHCMIDRNHPRPSIETLLHAFLPFKHVDHTHPDAIISICCADNGKEIAKNLFGDRFVWVPYVRPGFSLSKLIAEGVQKNPHAELVLMEKHGLVVWGETAKESYDRTISVINEAEAYIRSRINESVIFGGGKLEHHHHHH | failed
4 | MDMDEKDVVETEEESFAELFEKSNSETQRLRPGSKVEGKILKIGAEWVFIDIGKKGEGVMERKELQDAEGNLTVAEGDTITAWFTGSVRNEMRFTTKLGAGAAANAQLEEAHRSGIPVEGFVVKEIKGGFEVRLSGTTRAFCPFSQISLRRAENPAEFVGKHLLFKVTEYSERGRNIVLSHRQILEEEQRVKREALKEVLLEGMTVTGTVTRLADFGAFVDLGGVDGLIPVSEVGWTRVKHVRDVLSVGEQVSVVIKKIDWEAGKISLSLKDTLADPWTTVAEQFPEGSYHTGTVARLAAFGAFVTLAPGIDGLIHISKLGKGKRINHPSDVLKEGETVEVKVDGVDREARRLSLALAEVSRAAEEEEKSVASFRQQATSSSKESMGSFGDLLKAKIEEKRLEHHHHHH | failed
5 | MRVTGVIIRIIRQFFRDKRSLAMMFGAPMLLLWLLSLVFTQKDYVPHIAVVDMPVQVVKVMKNQEASIYEYSKEKAMSELENQKVDAVIRLENGKMNIVLEGSDSSKNRAVLQILQKSTEKNDVSIMKPEVNYLHGSKDFTMFDGLGPVLIGFFTFFFVFILSGVSFVRERLSGTLERLLSTPIKRWEIVVGYIIGFGIFAFIQSIIIVSFSVYILDLYVAGSIWLTLLITCMLSLTALTLGTFLSAYANNEFQMIQFIPLVIVPQIFFSGLFPIESMNKWLQMLGKLFPLTYGADAMRQVMIRNQGFTEIALDLTVLLFFSVLFAVGNVFALKKHRKI | failed
6 | MRIDTQEQLVTLLNALFEKVGINLEQVSKLDNYGVMFSVPGTMKPLIATLKTVTTPTNWNNETNLGHYKSADENWLLCLKPAPHSVFCIATVCSLHEKHLEQYIETSEKKQDRRIAAEHGDPEAQYYTAQDCEDKTEALFWYRKAGEQNHYWALYQIALMYEAGEGGLEKDFAQAILWRGKAAEQGSDAAARDLAEMYEEGTADIPQDLTLAIFWYERWLELSPVMRRMIKPKIKSLKAALSQRMNE | failed
7 | MSTQYWEEEIEIMSREKLQELQLQRLKKTINIAANSPYYKEVFSKNGITGDSIQSLDDIRKIPFTTKSDMRANYPFGLVAGDMKRDGVRIHSSSGTTGNPTVIVHSQHDLDSWANLVARCLYMVGIRKTDVFQNSSGYGMFTGGLGFQYGAERLGCLTVPAAAGNSKRQIKFISDFKTTALHAIPSYAIRLAEVFQEEGIDPRETTLKTLVIGAEPHTDEQRRKIERMLNVKAYNSFGMTEMNGPGVAFECQEQNGMHFWEDCYLVEIIDPETGEPVPEGEIGELVLTTLDREMMPLIRYRTRDLTRILPGKCPCGRTHLRIDRIKGRSDDMFIIKGVNIFPMQVEKILVQFPELGSNYLITLETVNNQDEMIVEVELSDLSTDNYIELEKIRRDIIRQLKDEILVTPKVKLVKKGSLPQSEGKAVRVKDLRDNK | not failed
8 | MIISNKSPISINNDPWEAYNDILEHNQLTLSNIEFTTTNLCNMRCSHCAVGYTLQTKDPDPLPMDIIYRRLDEIPNLRTLSITGGEPMFSKKSIKNVVKPLLKYAKHRGIYVQMNSNLTLPQDRYLDIAEY | failed
9 | MIKYLIVMLIPFVIVYLLMPKFIEFANEKGFVDKPTGRKKHDKLTPLIGGVVMYIGFFATYLFGIDSTRQLSQTFIIFIASTLVIIIGVIDDYYKGKGKEFPIYPRVIIQILAATMVFKAGIVFRGITNPFTGEFTQFSGWIQYILTITWIFGVTTVINWSDGMDGLAGSISIISAMTMFVVALAKGQFNSAYMSITLVGSILAFLRYNRHPARVFMGDSGANFLGFILAIIALEGAFKQATALSILVPVLALGVPIFDNIFVIFRRFQSGKPVYEADRSQIHYRLQERGMSVKQIVSYICILSGCLSLVSLLIIMIIL | failed
10 | TVHKQDGKVLEIELSSLKEALSFVSLIDGYYRLTADAHHYLCKEVAPPAVLENIHSNCHGPISMDFAISKLKKAGNQTGLYVLRCSPKDFNKYFLTFAVERENVIEYKHCLITKNENGEYNLSGTKRNFSNLKDLLNCYQMETVRSDSIIFQFTKCCPPKPKDKSNLLVFRTNGISDVQISPTLQRHNNVNQMVFHKIRNEDLIFNESLGQGTFTKIFKGVRREVGDYGQLHKTEVLLKVLDKAHRNYSESFFEAASMMSQLSHKHLVLNYGVCVCGEENILVQEFVKFGSLDTYLKKNKNSINILWKLGVAKQLAWAMHFLEEKSLIHGNVCAKNILLIREEDRRTGNPPFIKLSDPGISITVLPKDILQERIPWVPPECIENPKNLNLATDKWSFGTTLWEICSGGDKPLSALDSQRKLQFYEDKHQLPAPKWTELANLINNCMDYEPDFRPAFRAVIRDLNSLFTPDYELLTENDMLPNMRIGALGFSGAFEDRDPTQFEERHLKFLQQLGKGNFGSVEMCRYDPLQDNTGEVVAVKKLQHSTEEHLRDFEREIEILKSLQHDNIVKYKGVCYSAGRRNLRLIMEYLPYGSLRDYLQKHKERIDHKKLLQYTSQICKGMEYLGTKRYIHRDLATRNILVENENRVKIGDFGLTKVLPQDKEYYKVKEPGESPIFWYAPESLTESKFSVASDVWSFGVVLYELFTYIEKSKSPPVEFMRMIGNDKQGQMIVFHLIELLKSNGRLPRPEGCPDEIYVIMTECWNNNVSQRPSFRDLSLRVDQIRDSIAA | failed
11 | MTNKVKSKRIAAIDWMRGFVMIIMVLDHVSMAYNKEHLSTDSAASYIIGSPLPAFEFFTRWISHICAPVFVFLAGTALAISVERKLSRGFDSKAIDKDILLRGAFIALLDPTITSFFSGKLIFQVLYAIGIAMMCMAFFRRLSSTQLLIIAMAWILGGELVTAQFWFAGGQEQSIIVALLIGKYSSADLSISYALVPWLSVMILGWVFGRYILDYGDGKVTISPANLLFRLGFTALAAFIAIRYFNDYGNMFLLREDNSWQQWLHVSKYPPSASFIMLELGLMAVILALMIKVEQRIGVRPNGVLLVFGQTSMMFYLVHRIFLTGTATYGGLSDFTNLTNTYIISGVLLLLLFPFCIWYRSFKVKHPDSLWLKYL | failed
12 | MHEIYIYLGIMFMPTYKHSHTPSHDIEDDEDEGTEHLVDELRTNAGAFEEEALVEKLLENLDLDEVEEDEHDAANASFFDSLHFSSIFVLQKREGENESF | failed
13 | MPGTGLPIRGRRDPETIETRCLNNDQDSRLALIHAWLQTLPGSLGLRPETMEPASSDASFRRYFRLQAAAGTLIVMDAPPPHEDVRPFVHIDGLLREAGVNVPEIVAQDAGQGLLLLSDLGQDTFYQRIRAGISDAQLQSMYRDTLATLVRLQQASTAGLPAYDGARLAAELELFPEWYVGRHHGVTLDDKTAAALRQIFGLLAAEGDTGHRVLVHRDFHSPNLMVCDEPRYGPNPGVIDFQDALAGPLTYDLASLVTDARTTWEEPQQLDWAIRYWELARAAGLPVDADFAQFHRAYEWTGLQRNLRILGVFARLNHRDGKSIYLSHMPRVSGYVRQVAQRYGAFAPLLRLLDKLDDRQVQVGYTF | failed
14 | MGTNKQTALLPTVNQAITDGAVFGVSYSLLGPQENALHVIGYQGAGDDRLPLLPQARYDLASLTKVVGTTTRLLQLLIAGKLELTQPIGSLVSGLRYPQLTIEQLMLHRSGLPADVPDAHALDQAGLVHAVKTMAAVAAPDTETIYSDLNYIILGWAIAALDGDLATSLTQHIFAPLGMHATGYRPQHVAAADFVPTENVPARGGIIRGTVHDHKAFLLDGVSGHAGLFATLADLTIFTRLLAGLPVTNGDHVLPPAAFVLLDRFCKGGRTLGWRCWAQGRHQYWHTGFTGTSIAFDRDTQCGFVCLTNRIYPSRANRAWLAVRRQLLTQFFEVATSWPD | failed
15 | MANPLYHKHIISINDLSRDELELVLRTAASLKKTPQPELLKHKVIASCFFEASTRTRLSFETSIHRLGASVVGFSDSSNTSLGKKGETLADTMSVISTYVDAIVMRHPQEGASRLAAQFSGNVPIVNAGDGANQHPTQTLLDLFTIQETQGRLDNINIAMVGDLKYGRTVHSLTQALAKFNGNHFFFIAPDALAMPAYILQMLEEKEIEYSLHESLEEVVPELDILYMTRVQKERLDPSEYANVKAQFILRSSDLTGARDNLKVLHPLPRIDEITTDVDKTPYAYYFQQAGNGIFARQALLALVLNAELAL | not failed
16 | MLDSHLHPRLKPLLNAVAGALDRPGISPDGLTLVGFAIGVLALPFLALGWYGAALAAILLNRLLDGLDGALARRRGLTDAGGFLDIALDFLFYALVPFGFILADPLNNALAGGWLLFAFIGTGSSFLAFAALAARHQIANPGYAHKSLYYLGGLTEGTETILLFVLGCLFPAHFAWLAWLFGALCWLTTATRICSGYQTLKRVTTTA | failed
17 | MELLCHEVDPVRRAVRDRNLLRDDRVLQNLLTIEERYLPQCSYFKCVQKDIQPYMRRMVATWMLEVCEEQKCEEEVFPLAMNYLDRFLAGVPTPKSHLQLLGAVCMFLASKLKETSPLTAEKLCIYTDNSIKPQELLEWELVVLGKLKWNLAAVTPHDFIEHILRKLPQQREKLSLIRKHAQTFIALCATDFKFAMYPPSMIATGSVGAAICGLQQDEEVSSLTCDALTELLAKITNTDVDCLKACQEQIEAVLLNSLQQYRQDQRDGSKSEDELDQASTPTDVRDIDL | not failed
18 | MIYYGTMFDHKVRFSIVRMREVVEEARNRHALSYLATVVLGRALIGAALVTPWLAEKERWTLDIEGNGPIRRVVAQSTSEFTVRGYVANPKVELPLNEKGKFDVAGAIGQGVLRVVRDLGLKTPFVSQVPLVSGEIAEDLAYYFAVSEQIPSAFSIGVLVDSDGVKIAGGFAVQIIDRTLEQEKVEMIEKNIKNLPSISKLFQEAEPLDVLERIFGEKVGFVETAEIKYKCDCNREKAKNALLVLDKKELEDMRKEGKGEVVCKWCNTRYVFSEEELEELLKFKVDDSGS | not failed
19 | MSLEPLDVDAEGVAAATKARGFRPKHLVTGPSRDDKSFLGHPGGLPWMLQVEMWERFSWYGMRAILVYFITDTLAHGGLGLPINAGQVVMASYGAAVLLMTIPGGIFADRILGPWMSTLCGGLIIMTGHVILAIPQVVTSWIGLICIAIGTGFIKPNLSTVVGGLYDDGDPRRDQGFLYFYMSINIGSLFAPIVTGLLKDHYGYHVGFIAAAIGMALGLIAFFHGRSKLREFAFDIPNPLAPGEGRRMVLRALGIAVVGAVLAIGFKALLGEWTSAIAYALFAFASVTALSYFLTMFRSPKVSDRERGHLWAFVPLWVGQVLFTMIFEQAAGKMPTFAKDNTDGHIVGSWSVEPEQYQTINPAAVLILAGLLGMWFRRREGKFPNTPQKFAISVFIIGITALIMGFGFRSWPGGNRLAPWWFLAVVFVIQTVAELFMNPIGLSTATKLAPKKFASQNMTLWLLASACGQGLASVTIERTKNLGDVVFYYSLGIVTILVAVVLFVIAPWTQAKMKDVDSVAEEGDA | failed
20 | MGSLRLLADIQGEDLESLYGYAKQLFDGGEIAAARNVYQLLSTLDHWNFDYLLALGLCHQRLGAHNEAVVCFGRAGLIKVDDPRAAFYAGISYRLDGNAEYASKAFKAAINWCGEQIDYQAIKASAVDMLALQQEEVPLEHHHHHH | failed
